According to US20200172620A1:

Assays:
[1] = target: human CD8 (as used in SPR) (human) (UniProt P01732); test: SPR
[2] = target: human CD8 on cells (FACS) (human) (UniProt P01732); test: FACS
human CD8 on cells (FACS) (human), sequence (P01732 22-235): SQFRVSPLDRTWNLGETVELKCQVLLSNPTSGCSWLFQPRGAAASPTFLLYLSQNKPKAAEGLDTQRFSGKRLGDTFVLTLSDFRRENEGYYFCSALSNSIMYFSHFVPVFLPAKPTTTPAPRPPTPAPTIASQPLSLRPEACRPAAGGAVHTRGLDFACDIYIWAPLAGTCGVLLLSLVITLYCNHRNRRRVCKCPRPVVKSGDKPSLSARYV

human CD8 (as used in SPR) (human), sequence (P01732 22-182): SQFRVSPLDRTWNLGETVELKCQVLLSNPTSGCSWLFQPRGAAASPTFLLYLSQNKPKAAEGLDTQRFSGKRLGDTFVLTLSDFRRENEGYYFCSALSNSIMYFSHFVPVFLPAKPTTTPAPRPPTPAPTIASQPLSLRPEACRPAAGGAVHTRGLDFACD

Kd [1]: 13 nM | Ratio of KD huOKT8.v1/KD variant for binding to huCD8 [1]: 1 X | Kd [2]: 20 nM
B1: OKT8 (antibody, from another filing, V domains shown)
VH: EVQLQQSGAELVKPGASVKLSCTASGFNIKDTYIHFVRQRPEQGLEWIGRIDPANDNTLYASKFQGKATITADTSSNTAYMHLCSLTSGDTAVYYCGRGYGYYVFDHWGQGTTLTVSS
VL: DVQINQSPSFLAASPGETITINCRTSRSISQYLAWYQEKPGKTNKLLIYSGSTLQSGIPSRFSGSGSGTDFTLTISGLEPEDFAMYYCQQHNENPLTFGAGTKLELK
